Assays:
[1] = biological target: human plasma-derived FX (Haematologic Technologies Inc, USA) (human) (UniProt P00742); assay: cell-based or functional assay
[2] = biological target: T1, human plasma-derived FX (Haematologic Technologies Inc, USA) (human, UniProt P00742 41-179; P00742 183-488); assay: cell-based or functional assay
[3] = biological target: T1, human plasma-derived FX (Haematologic …); assay: SPR, FX captured on immobilised anti-GLA-FX antibody, steady state analysis, 25 C
Procedure: Briefly, an anti-GLA-FX, prepared recombinantly as described above, was immobilised on a CM4 sensor chip or a Xantec HLC200M using standard amine coupling chemistry at pH 5. 10 nM FX (Haematologic Technologies, USA) was injected at a flow rate of 10 μL/min for 30 seconds. Subsequently 1000, 100, 10, 1, 0.1 and 0 nM of VHH polypeptide compound, according to Table 9, below were injected at a flow rate of 50 μL/min for 200 seconds to allow for binding to FX followed by a flow of 10 minutes with a running buffer (10 mM HEPES, 150 mM NaCl, 5 mM CaCl₂), 0.05% (v/v) Surfactant P20, 1 mg/mL bovine serum albumin, pH 7.4) injection allowing for dissociation from FX. The running buffer was also used for dilution of anti-FX VHH polypeptide compounds. Regeneration of the chip was achieved using a regeneration buffer consisting of 50 mM EDTA in running buffer, 30 seconds contact time, and a 30 μL/min flow rate. The binding data were collected at 25° C. and were analysed according to a 1:1 model using BiaEvaluation 4.1 supplied by the manufacturer (Biacore AB, Uppsala or Bruker Analyser).
(§1) Therefore, the reported KD values are determined based on steady state analysis.

[4] = biological target: T2, Benefix (Pfizer Inc, USA), FIX (human, UniProt P00740 47-461); assay: SPR, FIX (Benefix) captured on immobilised anti-GLA-FIX antibody, steady state analysis, 25 C
T2 construct: Bought product; also called FIX (Benefix®)
Procedure: Briefly, anti-GLA-FIX, prepared recombinantly as described above, was immobilised on a CM4 sensor chip or a Xantec HLC200M using standard amine coupling chemistry at pH 5. FIX (10 nM) was injected at a flow rate of 10 μL/min for 1 minute. Subsequently 1000, 100, 10, 1, 0.1 and 0 nM of VHH polypeptide compound were injected at a flow rate of 30 μL/min for 4 minutes to allow for binding to the FIX (Benefix®) followed by a flow of 5 minutes running buffer (10 mM HEPES, 150 mM NaCl, 5 mM CaCl₂), 0.05% (v/v) Surfactant P20, 1 mg/mL bovine serum albumin, pH 7.4) injection allowing for dissociation from FIX. The running buffer was also used for dilution of anti-FIX VHH polypeptide compounds. Regeneration of the chip was achieved using a regeneration buffer consisting of 50 mM EDTA in running buffer, 30 seconds contact time, and a 30 μL/min flow rate. The binding data were collected at 25° C. and were analysed according to a 1:1 model using BiaEvaluation 4.1 supplied by the manufacturer (Biacore AB, Uppsala).
as §1

T1 sequence (P00742 41-179, chain 1 of 2): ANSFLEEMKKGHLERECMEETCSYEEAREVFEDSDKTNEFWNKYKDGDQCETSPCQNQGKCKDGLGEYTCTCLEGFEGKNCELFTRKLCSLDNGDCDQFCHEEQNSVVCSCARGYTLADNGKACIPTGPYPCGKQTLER
T1 sequence (P00742 183-488, chain 2 of 2): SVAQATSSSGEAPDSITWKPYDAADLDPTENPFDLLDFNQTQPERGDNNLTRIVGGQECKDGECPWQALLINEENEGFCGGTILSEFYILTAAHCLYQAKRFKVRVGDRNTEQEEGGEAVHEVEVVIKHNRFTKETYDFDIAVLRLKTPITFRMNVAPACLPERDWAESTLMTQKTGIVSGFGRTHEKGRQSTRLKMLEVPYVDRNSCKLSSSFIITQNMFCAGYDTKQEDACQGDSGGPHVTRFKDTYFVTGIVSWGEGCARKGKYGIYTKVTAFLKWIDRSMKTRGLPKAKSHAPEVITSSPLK
Sequence of human plasma-derived FX (Haematologic Technologies Inc, USA) (human) (P00742 41-179, chain 1 of 2): as the sequence (P00742 41-179, chain 1 of 2) above
Sequence of human plasma-derived FX (Haematologic Technologies Inc, USA) (human) (P00742 183-488, chain 2 of 2): as the sequence (P00742 183-488, chain 2 of 2) above
T2 sequence (P00740 47-461 T194A limits assumed): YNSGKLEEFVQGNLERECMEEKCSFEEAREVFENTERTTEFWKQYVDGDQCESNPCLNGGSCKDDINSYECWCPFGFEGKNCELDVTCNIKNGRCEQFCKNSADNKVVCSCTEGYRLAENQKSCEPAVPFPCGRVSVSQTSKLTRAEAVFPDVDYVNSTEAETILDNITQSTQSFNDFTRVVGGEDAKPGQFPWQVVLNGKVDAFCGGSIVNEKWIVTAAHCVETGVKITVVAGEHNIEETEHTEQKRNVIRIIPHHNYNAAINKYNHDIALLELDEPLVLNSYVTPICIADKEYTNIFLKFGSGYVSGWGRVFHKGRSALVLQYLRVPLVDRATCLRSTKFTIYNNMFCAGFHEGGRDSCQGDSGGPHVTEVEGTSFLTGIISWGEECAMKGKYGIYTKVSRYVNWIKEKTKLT

KM (nM) of FX activation by 0.1 nM FIXa on phospholipid vesicles with 300 nM antibody [1] | kcat/KM (1/(min * nM)) of FX activation by 0.1 nM FIXa with 300 nM antibody [1] | KM (nM) of FX activation by 0.1 nM FIXa on phospholipid vesicles with 5 nM compound [2] | kcat/KM (1/(min * nM)) of FX activation by 0.1 nM FIXa with 5 nM compound [2] | Kd [3] | Kd [4] | Molecule
53.5 nM | 500000 M⁻¹ s⁻¹ |  |  |  |  | emicizumab sequence identical analogue (SIA) (bispecific antibody)
 |  | 6.9 nM | 4.17e+06 M⁻¹ s⁻¹ | 350 nM | 3 nM | Cmpd #15 (anti-FX/anti-FIX(a) VHH polypeptide derivative) (bispecific antibody, C16 diacid protractor (P2) via linker LP1 on Cys4 and Cys6 in C-term extension (SEQ ID NO:9), Single chain of two VHH: anti-FX (N-terminal) and anti-FIX(a) (C-terminal); also called VHH1.15-L1-2-VHH2.15-E) DVQLVESGGGVVQPGGSLQLSCAASGGTKRRLAMGWFRQAPGQEREWVAAISRRGGSTNYADSVKGRFTISRDNSKNTVYLQMDSLRPEDTALYYCAADDSVGDGYLDYWGQGTLVTVSSGQAPGQEVQLVESGGGVVQPGGSLQLSCAASGRTFNIYTMSWFRQAPGQEREFVAGLRWTDSSTEYADSVKGRFTISRDNSKNTVYLQMDSLRPEDTALYYCAADRSFLFAQALGATKNYEYWGQGTLVTVSSGQACPC
 |  | 5.9 nM | 5.5e+06 M⁻¹ s⁻¹ | 232 nM | 4.8 nM | Cmpd #6 (anti-FX/anti-FIX(a) VHH polypeptide derivative) (bispecific antibody, C16 diacid protractor (P2) via linker LP1 on Cys5 and Cys7 in C-term extension (SEQ ID NO: 8), Single chain of two VHH: anti-FX (N-terminal) and anti-FIX(a) (C-terminal)) DVQLVESGGGVVQPGGSLQLSCAASGRTHSRYAMGWFRQAPGQEREFVAAISRRGGSTNYADSVKGRFTISRDNSKNTVYLQMDSLRPEDTALYYCAADDSSGDGYLDYWGQGTLVTVSSGGGGSGGGSEVQLVESGGGVVQPGGSLQLSCAASGRTFNIYTMSWFRQAPGQEREFVAGLRWTDSSTEYADSVKGRFTISRDNSKNTVYLQMDSLRPEDTALYYCAADRSFLFAQALGATKNYEYWGQGTLVTVSSGGGGCSCHHHHHH

— US20240067944A1 (published 2024)
